Experimental data taken from US6399078.

Key:
[1] = target: cell surface receptors on glycanase treated PBMC; assay: saturation binding of 125I-RANTES-heparin complexes to glycanase treated activated human PBMC, nonlinear curve fitting
[2] = target: cell surface receptors on glycanase treated PBMC; assay: saturation binding of 125I-RANTES-heparin complexes to glycanase treated activated human PBMC, gamma counting, nonlinear curve fitting after subtracting non-specific binding
[3] = target: cell surface receptors on glycanase treated PBMC; assay: saturation binding of 125I-RANTES-heparin complexes to glycanase treated activated human PBMC
CCR5 (human) [4] = target: CCR5 (human) (UniProt P51681); assay: glycanase treated PBMC preincubated with mAb 2D7, then 125I-RANTES-heparin complexes as labelled ligand, gamma counting; reference normal mouse IgG
CCR5 (human) [5] = target: CCR5 (human) (UniProt P51681); assay: flow cytometry of the activated human PBMC with mAb 2D7

Sequence of UniProt P51681 (P51681 whole entry): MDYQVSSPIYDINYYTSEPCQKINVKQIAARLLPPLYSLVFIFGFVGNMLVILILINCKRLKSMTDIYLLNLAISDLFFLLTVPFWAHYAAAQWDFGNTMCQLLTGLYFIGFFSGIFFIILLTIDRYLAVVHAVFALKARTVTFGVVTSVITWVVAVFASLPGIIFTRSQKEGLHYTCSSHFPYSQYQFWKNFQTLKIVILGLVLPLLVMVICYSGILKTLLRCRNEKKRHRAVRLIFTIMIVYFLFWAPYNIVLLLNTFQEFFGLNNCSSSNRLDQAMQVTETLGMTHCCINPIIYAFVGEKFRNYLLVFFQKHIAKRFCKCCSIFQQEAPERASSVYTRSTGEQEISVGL

Substance	Bmax (binding sites per cell) [1]	Kd [2] [nM]	saturating concentration [3] [nM]	percent reduction of 125I-RANTES binding (CCR5 (human) [4]) [percent]	percent of cells expressing CCR5 (stained by 2D7) (CCR5 (human) [5]) [%]
125I-labeled RANTES-heparin complexes (from UniProt P13501 24-91) (ligand)	900	1.5	> 1	–	–
anti-CCR5 monoclonal antibody 2D7	–	–	–	40	100
